This test has as its target myristoylated Gαi1 harboring a hexahistidine tag in the helical domain (rat) (UniProt P10824).

The values below come from paper PMC5182059.

Chain of UniProt P10824 (P10824 whole entry, the tested form may be a part): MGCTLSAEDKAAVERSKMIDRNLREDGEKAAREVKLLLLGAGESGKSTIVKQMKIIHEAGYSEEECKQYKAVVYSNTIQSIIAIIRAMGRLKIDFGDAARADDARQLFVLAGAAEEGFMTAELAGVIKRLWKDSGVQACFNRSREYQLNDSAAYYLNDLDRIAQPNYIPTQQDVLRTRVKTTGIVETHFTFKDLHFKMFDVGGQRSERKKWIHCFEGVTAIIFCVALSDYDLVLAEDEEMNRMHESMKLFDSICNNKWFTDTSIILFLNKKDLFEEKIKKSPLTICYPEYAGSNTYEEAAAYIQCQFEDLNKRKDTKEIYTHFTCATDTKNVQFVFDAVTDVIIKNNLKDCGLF

B1: Ric-8A (1-491) T456A (domain or fragment)
chain: MEPRAVADALETGEEDAVTEALRSFNREHSQSFTFDDAQQEDRKRLAKLLVSVLEQGLSPKHRVTWLQTIRILSRDRSCLDSFASRQSLHALACYADIAISEEPIPQPPDMDVLLESLKCLCNLVLSSPTAQMLAAEARLVVRLAERVGLYRKRSYPHEVQFFDLRLLFLLTALRTDVRQQLFQELHGVRLLTDALELTLGVAPKENPLVILPAQETERAMEILKVLFNITYDSVKREVDEEDAALYRYLGTLLRHCVMADAAGDRTEEFHGHTVNLLGNLPLKCLDVLLALELHEGSLEFMGVNMDVINALLAFLEKRLHQTHRLKECVAPVLSVLTECARMHRPARKFLKAQVLPPLRDVRTRPEVGDLLRNKLVRLMTHLDTDVKRVAAEFLFVLCSESVPRFIKYTGYGNAAGLLAARGLMAGGRPEGQYSEDEDTDTEEYREAKASINPVAGRVEEKPPNPMEGMTEEQKEHEAMKLVNMFDKLSR
As to B1, the v1: initial velocity of GDP to GTPγS exchange at Gαi1•GDP (2 μM) on adding GTPγS (10 μM) and Ric-8A (2 μM), tryptophan fluorescence, 25°C is 0.59 µM/min; the v2: initial rate of GTPγS binding to pre-formed Gαi1:Ric-8A (2 μM each, incubated 5 min before 10 μM GTPγS), with release of Ric-8A, tryptophan fluorescence, 25°C was determined as 0.24 µM/min.
